Positions count from the first letter of the chain named. “And” between values parts separate entries of the source, which are not always exact repeats. Equal entries are not always repeated.
What was measured:
potato phosphatase [1] = biological target: T1, potato phosphatase (Solanum tuberosum, UniProt Q6J5M8); assay: Phosphatase assay B, substrate specificity; conditions: purified potato phosphatase, assay B, pH 5.8, 25° C
T1 sequence (Q6J5M8 with tags, fused parts or gaps V118I/E238V/S277N/V282G/E319A/A394T/S415A/T416I/D418E/I426Y/H428S/N437A): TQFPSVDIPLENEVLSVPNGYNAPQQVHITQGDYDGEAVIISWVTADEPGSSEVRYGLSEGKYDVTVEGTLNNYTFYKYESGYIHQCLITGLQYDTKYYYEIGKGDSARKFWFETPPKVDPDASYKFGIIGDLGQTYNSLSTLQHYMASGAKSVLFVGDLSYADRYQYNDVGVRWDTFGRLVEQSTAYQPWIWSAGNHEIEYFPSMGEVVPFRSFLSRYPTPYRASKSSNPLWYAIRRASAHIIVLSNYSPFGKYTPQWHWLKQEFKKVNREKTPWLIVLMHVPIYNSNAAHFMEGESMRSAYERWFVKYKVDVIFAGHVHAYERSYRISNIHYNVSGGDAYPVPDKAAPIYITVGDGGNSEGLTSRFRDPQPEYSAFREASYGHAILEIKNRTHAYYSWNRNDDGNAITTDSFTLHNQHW
Experimental: Phosphatase activity was determined using assay B and a wide range of compounds, tested at a total concentration of 5 mM unless otherwise specified.
(§1) Phosphatase (0.05 units) was incubated in 1.5 mL cuvettes with 0.9 mL of 50 mM MES-NaOH (pH 5.8) containing 4 mM MgCl2 and an alternative substrate (5 mM unless otherwise indicated) for 6 min at 25° C. Reactions were terminated by the sequential addition of 0.1 mL reagent A (3 M H2 SO4 containing 20 mM ammonium molybdate) and […] of 1% (v/v) Triton X-100. Samples were incubated at 25° C. for 20 min and the A660 was determined. To calculate activities, a standard curve over the range of […] Pi was constructed for each set of assays. Assays were performed in triplicate and controls were run for background amounts of Pi present at each substrate concentration by adding reagent A before the enzyme.

[2] = biological target: minor 28-kD potato tuber phosphatase isoform; conditions: cited from earlier work
[3] = biological target: egg yolk storage phosphoprotein, phosvitin (Gallus gallus (Chicken)) (UniProt P02845)
[4] = biological target: potato tuber phosphatase (PTAP) (potato (Solanum tuberosum L. cv. Chiefton))
[5] = system: P-Tyr phosphatase from Escherichia coli; conditions: E. coli P-Tyr phosphatase; cited from earlier work
[6] = substrate: C=C(OP(=O)(O)O)C(=O)O; assay: purified protein, by the assay type; conditions: other: apparent Km, purified potato phosphatase, assay B; pH 5.8; 25.0 °C
[7] = substrate: NC(COP(=O)(O)O)C(=O)O; assay: purified protein, by the assay type; conditions: other: apparent Km, purified potato phosphatase, assay B; pH 5.8; 25.0 °C
[8] = substrate: N[C@@H](Cc1ccc(OP(=O)(O)O)cc1)C(=O)O; assay: purified protein, by the assay type; conditions: other: apparent Km, purified potato phosphatase, assay B; pH 5.8; 25.0 °C
Experimental: (§3) Phosphatase (0.05 units) was incubated in 1.5 mL cuvettes with 0.9 mL of 50 mM MES-NaOH (pH 5.8) containing 4 mM MgCl2 and an alternative substrate (5 mM unless otherwise indicated) for 6 min at 25° C. Reactions were terminated by the sequential addition of 0.1 mL reagent A (3 M H2 SO4 containing 20 mM ammonium molybdate) and 10 ml of 1% (v/v) Triton X-100. Samples were incubated at 25° C. for 20 min and the A660 was determined. To calculate activities, a standard curve over the range of 0.01 to 1.0 mmol Pi was constructed for each set of assays. Assays were performed in triplicate and controls were run for background amounts of Pi present at each substrate concentration by adding reagent A before the enzyme. Hydrolysis was proportional to enzyme concentrations between 0.005 to 0.1 units/mL and remained linear with time for at least 15 min.
(§4) All kinetic parameters are the means of duplicate determinations performed on two separate preparations of the purified enzyme, and are reproducible to within ±10% SE.

[9] = substrate: Nc1ncnc2c1ncn2[C@@H]1O[C@H](COP(=O)(O)OP(=O)(O)OP(=O)(O)O)[C@@H](O)[C@H]1O; assay: purified protein, by the assay type; conditions: other: apparent Km, purified potato phosphatase, assay B; pH 5.8; 25.0 °C
Experimental: as §3, §4

[10] = substrate: O=[N+]([O-])c1ccc(OP(=O)(O)O)cc1; assay: purified protein, by the assay type; conditions: other: apparent Km, purified potato phosphatase, assay B; pH 5.8; 25.0 °C
[11] = Heat-stability of the phosphatase; assay type: physicochemical
Experimental: The phosphatase was relatively heat-stable, losing 0, 52, and 90% of its original activity when incubated for 4 min at 65, 70 and 75° C., respectively.

[12] = system: potato tuber phosphotyrosyl proteins; assay: Dephosphorylation of potato tuber phosphotyrosyl proteins by potato tuber phosphatase; assay type: biochemical, Solanum tuberosum; conditions: + 30 units/mL phosphatase
Experimental: A desalted potato tuber extract was incubated at 25° C. in the absence (-) and presence (+) of 30 units/mL purified potato tuber phosphatase. Aliquots were removed at 2 and 19 h and analyzed by immunoblotting using anti-(P-Tyr) IgG (Kamps and Sefton, 1988). The relative P-Tyr content of the 7 antigenic polypeptides was estimated by laser densitometric quantification of the immunoblots as described in the examples. Unless otherwise noted, all values represent the means±SE of triplicate determinations. ^a, the mean of duplicate determinations.
Electroblotting was performed by the method of Moorhead and Plaxton (1990), with the addition of […] o-vanadate to the transfer buffer when maintenance of phosphotyrosyl residues was desired. All immunoblots to be probed with the anti-(black mustard PEP-specific phosphatase) IgG (Duff et al, 1991a) were first pre-treated with sodium m-periodate according to Laine (1988) so as to oxidize antigenic oligosaccharide chains of endogenous tuber glycoproteins. Immunological detection of phosphotyrosylated tuber proteins using anti-(P-Tyr) IgG (Kamps and Sefton, 1988) was performed as referenced above except that the blocking buffer contained 5% (w/v) bovine serum albumin (fraction V) and 1% (w/v) ovalbumin instead of 3% (w/v) defatted milk powder.
Antigenic polypeptides were visualized using an alkaline-phosphatase-taggedsecondary antibody (Moorhead and Plaxton, 1990). Immunological specificities were confirmed by performing immunoblots in which rabbit preimmune serum was substituted for the affinity-purified IgGs. An LKB Ultroscan XL Enhanced Laser Densitometer was used to scan indicated immunoblots. Densitometric data were analysed using the LKB Gelscan XL software (version 2.1). Immunoreactive polypeptides were quantified in terms of their relative absorbance at 633 nm wavelength (A633).
Peeled and diced potato tuber tissue (5 g) was homogenized with a Polytron in 1 volume of 100 mM MES-NaOH (pH 5.8) containing 2 mM PMSF, 2 mM DTT, and 1 mM EDTA. The homogenate was centrifuged for 10 min at 13,000 g in an Eppendorf microfuge, and a 3-mL aliquot of the supernatant fluid was passed at 4° C. through a BioRad Econo-Pac 10DG desalting column that had been pre-equilibrated in homogenization buffer lacking PMSF. Aliquots (0.1 mL) of the desalted crude extract were incubated at 25° C. with and without 3 units of the purified potato phosphatase. Samples were removed at 0, 2 and 19 h and analyzed by immunoblotting using the anti-(P-Tyr) IgG as described supra. Laser densitometric scanning and immunoquantification of the blots was performed as described supra.

potato phosphatase [13] = biological target: T1, potato phosphatase; assay: Specific activity of purified potato tuber phosphatase; assay type: biochemical; design: mature chain from Thr30, C-terminus not determined
Experimental: As an initial step towards the isolation of plant phosphatase genes, the predominant phosphatase from potato tuber was purified to a final P-Tyr-hydrolyzing specific activity of 1917 units/mg (Gellatly et al, 1994). Only a single peak of activity was recovered following chromatography on columns of S-Sepharose, phosphocellulose and Phenyl Superose (Gellatly et al, 1994). One unit is defined as the μmoles of Pi produced per min at 25° C. The enzyme was purified 2289-fold to a final PEP-hydrolyzing specific activity of 618 units/mg and an overall recovery of 31% (Gellatly et al, 1994). With P-Tyr as substrate the final specific activity was increased to approximately 1900 units/mg (Table 1). This final specific activity was higher than any reported for a purified plant phosphatase (Duff et al, 1994).
(§2) Assays were initiated by the addition of enzyme preparation. One unit of phosphatase activity is defined as the quantity of enzyme that would catalyze the hydrolysis of 1 […] of substrate/min at 25° C.
as §1, with “enzyme. Hydrolysis was proportional to enzyme concentrations between 0.005 to 0.1 units/mL and remained linear with time for at least 15 min.” for “enzyme.”
Potato tuber phosphatase was purified by the method of Gellatly et al. (1994).

potato phosphatase [14] = biological target: T1, potato phosphatase; assay: Effect of pH on phosphatase activity (assay A with PEP); assay type: biochemical; design: mature chain from Thr30, C-terminus not determined; conditions: pH/activity profile
Experimental: Unless otherwise stated all kinetic studies of the potato phosphatase were performed with PEP using assay A (infra).
All subsequent kinetic studies were carried out at pH 5.8.
as §2

NC(COP(=O)(O)O)C(=O)O (stereo not drawn) [P-Ser]
Vmax (potato phosphatase [1]): 389 units/mg | dephosphorylation by the minor 28-kD isoform [2]: inability to catalyze dephosphorylation

potato tuber phosphatase (PTAP) (enzyme)
phosphoprotein phosphatase activity [3]: 220 units/mg

egg yolk storage phosphoprotein, phosvitin (from UniProt P02845)
Relative Activity (%) of potato phosphatase with 0.25 mM PEP [4]: 19%

N[C@@H](Cc1ccc(OP(=O)(O)O)cc1)C(=O)O [P-Tyr, o-phospho-L-tyrosine]
Km [5]: > 6000 µM

B1: potato phosphatase (Solanum tuberosum) (protein)
chain: T1 sequence (Q6J5M8 with tags, fused parts or gaps V118I/E238V/S277N/V282G/E319A/A394T/S415A/T416I/D418E/I426Y/H428S/N437A)
Km [6]: 1520 µM | Km [7]: 620 µM | Km [8]: 990 µM | Vmax [8]: 1917 units/mg | Km [9]: 2160 µM | Vmax [9]: 368 units/mg | Km [10]: 1100 µM

B2: PTAP: potato tuber acid phosphatase purified from Solanum tuberosum tubers; 57 and 55 kD subunits (protein)
chain: T1 sequence (Q6J5M8 with tags, fused parts or gaps V118I/E238V/S277N/V282G/E319A/A394T/S415A/T416I/D418E/I426Y/H428S/N437A) with Q189G
loss of original activity ([11]; incubated 4 min at 65° C): 0% | loss of original activity ([11]; incubated 4 min at 70° C): 52% | loss of original activity ([11]; incubated 4 min at 75° C): 90% | Relative phosphotyrosyl content after incubation at 25° C ([12]; 20 kD polypeptide, 2h): 66 ± 5 % initial value | Relative phosphotyrosyl content after incubation at 25° C ([12]; 20 kD polypeptide, 19h): 12 ± 3 % initial value | Relative phosphotyrosyl content after incubation at 25° C ([12]; 34 kD polypeptide, 2h): 40 ± 3 % initial value | Relative phosphotyrosyl content after incubation at 25° C ([12]; 34 kD polypeptide, 19h): 16 + 2 % initial value | Relative phosphotyrosyl content after incubation at 25° C ([12]; 85 kD polypeptide, 2h): 69 ± 2 % initial value | Relative phosphotyrosyl content after incubation at 25° C ([12]; 85 kD polypeptide, 19h): 34 ± 2 % initial value | Relative phosphotyrosyl content after incubation at 25° C ([12]; 102 kD polypeptide, 2h): 60 ± 5 % initial value | Relative phosphotyrosyl content after incubation at 25° C ([12]; 102 kD polypeptide, 19h): 36 ± 3 % initial value | Relative phosphotyrosyl content after incubation at 25° C ([12]; 228.5 kD polypeptide, 2h): 65 ± 2 % initial value | Relative phosphotyrosyl content after incubation at 25° C ([12]; 228.5 kD polypeptide, 19h): 28 ± 3 % initial value | o-phospho-L-tyrosine (P-Tyr) hydrolyzing specific activity (potato phosphatase [13]; final purified preparation): 1917 μmol Pi produced min^-1 mg^-1 of protein | PEP-hydrolyzing specific activity (potato phosphatase [13]; final purified preparation, substrate PEP): 618 units/mg | p-nitrophenyl phosphate-hydrolyzing specific activity (potato phosphatase [13]; purified PTAP sample used for microprobe analysis): 618 units/mg | pH of maximum activity (potato phosphatase [14]): ~5.8 | pH of half-maximal activity (potato phosphatase [14]; listed as potato phosphatase): 4.9 and 6.7
